The text below walks through data of paper PMC10796598.

In the assay the target is synaptobrevin2 (syb2) All ItoA (rat) (UniProt P63045).

“synaptobrevin2 (syb2) All ItoA (from UniProt P63045 1-116) (natural protein)” yielded a mean open-state dwell time (<t (o-obs)>) of single fusion pores, ND5S(All ItoA) on t-SNARE BLM of 36 ms.
